Results reported in US20060024722A1.

Target: oncofetal fibronectin (human) (UniProt P02751)
Assay: lateral flow sandwich assay (FDC-6 latex conjugate / immobilised goat anti-fibronectin), TLiIQ reflectance reader

Sequence of UniProt P02751 (P02751 32-2477): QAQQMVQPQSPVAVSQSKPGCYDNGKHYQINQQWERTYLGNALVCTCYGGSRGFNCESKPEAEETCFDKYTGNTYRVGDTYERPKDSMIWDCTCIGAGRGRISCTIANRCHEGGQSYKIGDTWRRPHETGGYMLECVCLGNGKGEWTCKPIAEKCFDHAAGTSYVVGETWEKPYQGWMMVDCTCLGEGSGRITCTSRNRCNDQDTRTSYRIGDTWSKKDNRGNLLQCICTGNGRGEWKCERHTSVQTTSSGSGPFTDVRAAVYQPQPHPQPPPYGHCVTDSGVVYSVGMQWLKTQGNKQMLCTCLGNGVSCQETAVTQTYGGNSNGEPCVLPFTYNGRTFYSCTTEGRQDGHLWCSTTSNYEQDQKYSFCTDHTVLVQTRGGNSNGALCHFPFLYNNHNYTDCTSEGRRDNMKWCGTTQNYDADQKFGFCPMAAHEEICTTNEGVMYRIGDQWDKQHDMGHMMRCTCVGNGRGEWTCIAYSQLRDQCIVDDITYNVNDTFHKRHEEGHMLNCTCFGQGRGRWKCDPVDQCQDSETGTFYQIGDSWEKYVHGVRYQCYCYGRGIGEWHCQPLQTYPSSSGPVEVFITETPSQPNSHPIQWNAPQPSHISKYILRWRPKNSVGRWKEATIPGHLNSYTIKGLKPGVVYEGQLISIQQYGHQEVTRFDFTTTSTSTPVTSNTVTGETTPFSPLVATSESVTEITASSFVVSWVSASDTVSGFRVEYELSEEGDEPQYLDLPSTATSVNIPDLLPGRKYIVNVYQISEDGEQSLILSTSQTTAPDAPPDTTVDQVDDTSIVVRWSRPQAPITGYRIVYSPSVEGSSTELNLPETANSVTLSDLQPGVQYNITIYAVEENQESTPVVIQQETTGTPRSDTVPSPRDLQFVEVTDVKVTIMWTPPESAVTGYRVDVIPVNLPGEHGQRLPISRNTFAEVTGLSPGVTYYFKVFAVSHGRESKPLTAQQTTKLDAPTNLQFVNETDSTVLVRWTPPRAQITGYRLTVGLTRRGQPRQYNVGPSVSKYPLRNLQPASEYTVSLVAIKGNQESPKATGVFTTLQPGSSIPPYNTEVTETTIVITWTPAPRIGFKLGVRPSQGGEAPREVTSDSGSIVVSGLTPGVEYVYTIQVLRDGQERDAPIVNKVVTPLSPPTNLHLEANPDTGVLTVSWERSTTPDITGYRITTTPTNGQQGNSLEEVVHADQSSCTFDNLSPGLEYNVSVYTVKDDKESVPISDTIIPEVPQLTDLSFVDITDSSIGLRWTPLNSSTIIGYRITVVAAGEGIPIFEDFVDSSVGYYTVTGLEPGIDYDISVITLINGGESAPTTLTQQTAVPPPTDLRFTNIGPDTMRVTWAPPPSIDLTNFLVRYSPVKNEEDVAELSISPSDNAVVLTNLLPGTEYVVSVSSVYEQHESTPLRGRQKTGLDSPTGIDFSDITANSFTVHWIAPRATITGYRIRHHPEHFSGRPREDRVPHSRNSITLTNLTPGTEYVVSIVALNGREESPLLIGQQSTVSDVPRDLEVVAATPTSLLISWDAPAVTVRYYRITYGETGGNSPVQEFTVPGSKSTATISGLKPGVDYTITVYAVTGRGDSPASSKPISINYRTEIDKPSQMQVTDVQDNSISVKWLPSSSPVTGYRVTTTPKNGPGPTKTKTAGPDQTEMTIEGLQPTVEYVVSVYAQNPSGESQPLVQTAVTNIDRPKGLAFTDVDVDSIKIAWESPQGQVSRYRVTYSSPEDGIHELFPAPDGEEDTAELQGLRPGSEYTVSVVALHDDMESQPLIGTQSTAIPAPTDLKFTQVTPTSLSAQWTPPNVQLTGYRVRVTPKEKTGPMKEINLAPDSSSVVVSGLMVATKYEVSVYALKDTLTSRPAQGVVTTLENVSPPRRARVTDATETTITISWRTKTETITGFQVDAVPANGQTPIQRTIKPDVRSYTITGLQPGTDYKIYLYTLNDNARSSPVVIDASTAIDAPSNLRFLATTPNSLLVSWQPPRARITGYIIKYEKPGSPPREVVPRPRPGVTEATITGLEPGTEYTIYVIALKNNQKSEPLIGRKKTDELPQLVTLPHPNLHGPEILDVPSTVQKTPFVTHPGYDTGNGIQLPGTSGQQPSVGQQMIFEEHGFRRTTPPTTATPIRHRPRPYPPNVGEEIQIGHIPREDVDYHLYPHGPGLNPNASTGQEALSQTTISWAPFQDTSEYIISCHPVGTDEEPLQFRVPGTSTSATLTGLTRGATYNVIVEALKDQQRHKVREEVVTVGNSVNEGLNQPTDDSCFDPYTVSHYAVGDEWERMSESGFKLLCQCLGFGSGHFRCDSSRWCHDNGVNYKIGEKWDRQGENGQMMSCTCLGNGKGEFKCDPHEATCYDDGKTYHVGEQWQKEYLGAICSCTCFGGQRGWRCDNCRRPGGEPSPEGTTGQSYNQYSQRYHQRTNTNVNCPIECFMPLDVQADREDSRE

Substance: monoclonal antibody FDC-6 produced by hybridoma ATCC HB 9018
- reflectance signal at 50 ng/ml oncofetal fibronectin (reflectance signal): 0.315
